One assay addresses T1, 新冠病毒全长S蛋白 (Spike-trimer) (SARS-CoV-2, UniProt P0DTC2 14-1213).
T1 construct: also called S-FL
As to the kind of experiment: BLI (Octet RED96), His-tagged nanobody on Ni-NTA sensor. On the technique in general: BLI is a label-free optical method that tracks binding on a fibre tip over time.

The target of a further assay is T2, Delta(B.1.617.2)突变株RBD蛋白 (SARS-CoV-2 Delta (B.1.617.2), UniProt P0DTC2 319-541).
T2 construct: domain: RBD; also called RBD-Delta; RBD-Delta(B.1.617.2)
The description is as above.

A further assay has as its target T3, B.1.617.1突变株RBD蛋白 (SARS-CoV-2 B.1.617.1, UniProt P0DTC2 319-541).
T3 construct: domain: RBD
As to the kind of experiment: ELISA. Background: An ELISA detects its analyte on a solid surface through an enzyme-linked reagent.

Changes are numbered by the printed parent chain.

B1: 纳米抗体C5 (C5克隆) (VHH)
VHH: DVQLVESGGGSVQAGGSLRLSCAASGKYSHLGFLGWFRQAPGKEREGVAAGLGAYEDGYYADSVKGRFTVSLDNAENTVYLQMNSLKPEDTALYYCAALVVFSRDSPEFLAQNYWGQGTQVTVSS
notes: also called C5抗体; C5 nanobody
Broadly, the Kd is a measure of binding affinity in units of concentration. A high value points to a looser complex. As to B1, in the assay with 新冠病毒全长S蛋白 (Spike-trimer), the Kd was determined as 18 nM.

B2: 纳米抗体C5D2 (VHH)
VHH: B1 VHH with K27E, H30Q, G32R, Y55N, V101I, R104H, S106G
B2 registered a Kd with Delta(B.1.617.2)突变株RBD蛋白 of 13.1 nM. Besides, the binding result with B.1.617.1突变株RBD蛋白 was “no binding”.

B3: 纳米抗体C5G2 (VHH)
VHH: B1 VHH with Y28F, G32V, D57S, F102L, S106N, P107T, L110I, Q112H
Take B3: in the assay with Delta(B.1.617.2)突变株RBD蛋白, binding was put at a Kd of 83.1 nM. In the assay with B.1.617.1突变株RBD蛋白, the binding result is listed as “no binding”.

The values above are taken from patent CN114349851A (SHANGHAI NAI BIOTECHNOLOGY CO LTD, dated 2022).
